Literature values, collected in patent publication US5576301A, “Low molecular growth potentiating peptides” (The Penn State Research Foundation, priority 1994, dated 1996).

What was measured:
[1] = test system: tibial growth plate of hypophysectomized rats; conditions: hormone standard
[2] = comparison values
patients = patients treated with recombinant hGH

Molecule | potency of GH standard preparation [1] [IU/mg protein] | other results
Kabi hGH standard: human growth hormone standard obtained from Kabi Vitrum, Sweden | 3.0 | –
human monomeric growth hormone: monomeric 22K human growth hormone | – | pI [2]: 5.1-5.6
recombinant form of hGH: recombinant human growth hormone used in the United States to treat patients | – | patients treated that develop circulating antibodies (patients): 20~30%
USDA bovine GH preparation: bovine growth hormone standard used in the tibial line bioassay (protein, UniProt P01246 27-217, looked up) Somatotropin: AFPAMSLSGLFANAVLRAQHLHQLAADTFKEFERTYIPEGQRYSIQNTQVAFCFSETIPAPTGKNEAQQKSDLELLRISLLLIQSWLGPLQFLSRVFTNSLVFGTSDRVYEKLKDLEEGILALMRELEDGTPRAGQILKQTYDKFDTNMRSDDALLKNYGLLSCFRKDLHKTETYLRVMKCRRFGEASCAF | 1.4 | –
